Source: patent publication US20220105179A1 (published 2022)

Target: NEUFcε (Arthrobacter urefaciens;mouse, UniProt P06336 99-421)
Assay: BLI

B1: hFcεRIα (receptor)
chain: VPQKPKVSLNPPWNRIFKGENVTLTCNGNNFFEVSSTKWFHNGSLSEETNSSLNIVNAKFEDSGEYKCQHQQVNESEPVYLEVFSDWLLLQASAEVVMEGQPLFLRCHGWRNWDVYKVIYYKDGEALKYWYENHNISITNATVEDSGTYYCTGKVWQLDYESEPLNITVIKAPREKYWLQ
In the case of B1, the Kd is reported as under 1 pM.
